In publication PMC9239997, “Structural basis for mitoguardin-2 mediated lipid transport at ER-mitochondrial membrane contact sites” (Nature Communications, 2022):
Numbering of substitutions follows the chain as printed. Names may count otherwise. [ ]: non-standard residue; d: D form. pS = N[C@@H](COP(=O)(O)O)C(=O)O

B1: mouse MIGA2 residues 161-570 (domain or fragment, UniProt Q8BK03 161-570, looked up)
chain: GMEESVPTTDGSAESLYVQGMELFEEALQKWEQALSVGQRGDGGSTPTPGDSLQNPDTASEALSEPESQRREFAEKLESLLHRAYHLQEEFGSTFPSDSMLLDLERTLMLPLTEGSLRLRADDEDSLTSEDSFFSATEIFESLQIGEYPLPLSRPAAAYEEALQLVKEGRVPCRTLRTELLGCYSDQDFLAKLHCVRQAFEGLLEERSNQIFFGEVGRQMVTGLMTKAEKSPKGFLESYEEMLSYALRPETWATTRLELEGRGVACMSFFDIVLDFILMDAFEDLENPPSSVLAVLRNRWLSDSFKETALATACWSVLKAKRRLLMVPDGFISHFYSVSEHVSPVLAFGFLGPKPQLSEVCAFFKHQIVQYLRDMFDLDNVRYTSVPALAEDILQLSRRRSEILLGYLGA
notes: Oligomer of unstated size by SEC; source: E. coli BL21 (DE3), purified (Ni2+-chelated HiTrap, tag cleaved by TEV, size exclusion chromatography)
B2: MSP domain of mouse VAPB (residues 1-125) (domain or fragment, UniProt Q9QY76 1-125, looked up)
chain: MAKVEQVLSLEPQHELKFRGPFTDVVTTNLKLGNPTDRNVCFKVKTTVPRRYCVRPNSGVIDAGASLNVSVMLQPFDYDPNEKSKHKFMVQSMFAPPDTSDMEAVWKEAKPEDLMDSKLRCVFEL
notes: vesicle-associated membrane protein-associated protein B/C (VAPB), Mus musculus, MSP domain, residues 1-125; Cloned into pGEX-6P-1; the pull-down used a GST-fused form, which is not this molecule; also called mVAPB; mVAPB WT
B3: MSP domain of mouse VAPB (residues 1-125) (domain or fragment, mouse (Mus musculus), UniProt Q9QY76 1-125, looked up)
chain: B2 chain
notes: vesicle-associated membrane protein-associated protein B/C (VAPB), mouse, MSP domain, residues 1-125; In the liposome clustering (DLS) and tethered lipid transfer assays a His-tagged form (His-mVAPB) was used; also called mVAPB; wild-type mVAPB
B4: MSP domain of mouse VAPB (residues 1-125) K87L/K118L (domain or fragment, UniProt Q9QY76 1-125, looked up)
chain: B2 chain with K87L, K118L
notes: VAPB, Mus musculus, MSP domain, residues 1-125, with K87L and K118L; also called mVAPB K87L/K118L
B5: mouse MIGA2 residues 275-570, S292E/S295D (domain or fragment, mouse (Mus musculus), UniProt Q8BK03 275-570, looked up)
chain: GSLRLRADDEDSLTSEDEFFDATEIFESLQIGEYPLPLSRPAAAYEEALQLVKEGRVPCRTLRTELLGCYSDQDFLAKLHCVRQAFEGLLEERSNQIFFGEVGRQMVTGLMTKAEKSPKGFLESYEEMLSYALRPETWATTRLELEGRGVACMSFFDIVLDFILMDAFEDLENPPSSVLAVLRNRWLSDSFKETALATACWSVLKAKRRLLMVPDGFISHFYSVSEHVSPVLAFGFLGPKPQLSEVCAFFKHQIVQYLRDMFDLDNVRYTSVPALAEDILQLSRRRSEILLGYLGA
B6: MSP domain of mouse VAPB (residues 1-125) K43L/K45L (domain or fragment, UniProt Q9QY76 1-125, looked up)
chain: B2 chain with K43L, K45L
notes: VAPB, Mus musculus, MSP domain, residues 1-125, with K43L and K45L; also called mVAPB K43L/K45L
B7: phosphorylated FFAT motif peptide of mouse MIGA2 (residues 289-298) (peptide)
peptide: Ac-SED[pS]FF[pS]ATE-NH2
SMILES: CC(=O)N[C@@H](CO)C(=O)N[C@@H](CCC(=O)O)C(=O)N[C@@H](CC(=O)O)C(=O)N[C@@H](COP(=O)(O)O)C(=O)N[C@@H](Cc1ccccc1)C(=O)N[C@@H](Cc1ccccc1)C(=O)N[C@@H](COP(=O)(O)O)C(=O)N[C@@H](C)C(=O)N[C@H](C(=O)N[C@@H](CCC(=O)O)C(N)=O)[C@@H](C)O
notes: also called mMIGA2^pFFAT; source: synthetic peptide, purified by HPLC
B8: mouse MIGA2 middle domain, residues 161-300 (domain or fragment, UniProt Q8BK03 161-300, looked up)
chain: GMEESVPTTDGSAESLYVQGMELFEEALQKWEQALSVGQRGDGGSTPTPGDSLQNPDTASEALSEPESQRREFAEKLESLLHRAYHLQEEFGSTFPSDSMLLDLERTLMLPLTEGSLRLRADDEDSLTSEDSFFSATEIF
notes: Oligomer of unstated size by SEC; also called central MIGA2 domain; source: E. coli BL21 (DE3), purified (Ni2+-chelated HiTrap, tag cleaved by TEV, size exclusion chromatography)

Legend:
zMiga2 = biological target: T1, zMiga2 (Danio rerio, UniProt Q5BLE2); assay: FRET lipid transfer between liposomes; type: biochemical; details: labelled compound; 100 nM protein, pH 7.0, room temperature; transport, not chemical turnover
T1 construct: gene miga2; LD targeting domain, residues 310-568; E. coli BL21(DE3); His6 tag cleaved by TEV
T1 sequence (Q5BLE2 310-568): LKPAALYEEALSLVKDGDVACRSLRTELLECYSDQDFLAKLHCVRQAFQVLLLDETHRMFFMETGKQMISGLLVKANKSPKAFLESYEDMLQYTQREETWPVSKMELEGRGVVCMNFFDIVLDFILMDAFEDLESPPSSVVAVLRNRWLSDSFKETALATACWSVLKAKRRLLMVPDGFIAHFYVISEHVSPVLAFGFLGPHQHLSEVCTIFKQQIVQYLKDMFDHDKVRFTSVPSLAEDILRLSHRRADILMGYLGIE

[1] = biological target: the molecule itself; assay: SEC; Superdex 200 increase 10/300 GL, 25 mM Tris-HCl pH 7.5, 150 mM NaCl, 5 mM DTT; proteins injected at 2–4 mg/ml; elution compared with molecular mass standards
[2] = biological target: T2, mouse MIGA2 residues 275-570 S292E (mouse, UniProt Q8BK03 275-570, S292E); assay: ITC; mVAPB (wild type or mutant) in the syringe, mMIGA2^275-570 or mMIGA2^pFFAT in the cell; Microcal ITC200, 25 °C, 25 mM Tris-HCl pH 7.5, 150 mM NaCl, 4 mM β-mercaptoethanol; 20 injections of 2 μl; 1:1 binding model; details: both partners purified
T2 construct: source: E. coli BL21 (DE3), purified as the wild type (Ni2+-chelated HiTrap, tag cleaved by TEV, size exclusion chromatography)
T2 sequence (looked up): B5 chain with D21S

[3] = biological target: T3, mouse MIGA2 residues 275-570 S295D (mouse, UniProt Q8BK03 275-570, S295D); assay: as above; details: both partners purified
T3 construct: source: E. coli BL21 (DE3), purified as the wild type (Ni2+-chelated HiTrap, tag cleaved by TEV, size exclusion chromatography)
T3 sequence (looked up): B5 chain with E18S

[4] = biological target: T4, mouse MIGA2 residues 275-570 S292E/S295D (mouse, UniProt Q8BK03 275-570, S292E | S295D); assay: as above; details: both partners purified
T4 construct: source: E. coli BL21 (DE3), purified as the wild type (Ni2+-chelated HiTrap, tag cleaved by TEV, size exclusion chromatography)
T4 sequence (looked up): B5 chain

[5] = biological target: B7; assay: as above; details: both partners purified
[6] = biological target: T5, mouse MIGA2 residues 275-570, S292E (mouse (Mus musculus), UniProt Q8BK03 275-570, S292E); assay: ITC; Microcal ITC200, 25 °C, buffer C (25 mM Tris-HCl pH 7.5, 150 mM NaCl, 4 mM β-mercaptoethanol); 20 injections of 2 μl; 1:1 binding model; details: both partners purified
T5 construct: also called S292E phosphorylation mimic mutant; source: E. coli BL21 (DE3), purified (Ni2+-chelated HiTrap, TEV cleavage, SEC)
T5 sequence (looked up): B5 chain with D21S

[7] = biological target: T6, mouse MIGA2 residues 275-570, S295D (mouse (Mus musculus), UniProt Q8BK03 275-570, S295D); assay: as above; details: both partners purified
T6 construct: also called S295D phosphorylation mimic mutant; source: E. coli BL21 (DE3), purified (Ni2+-chelated HiTrap, TEV cleavage, SEC)
T6 sequence (looked up): B5 chain with E18S

[8] = biological target: B5; assay: as above; details: both partners purified
[9] = biological target: B3; assay: cell-based or functional assay
[10] = biological target: B6; assay: ITC; mVAPB (wild type or mutant) in the syringe, mMIGA2^275-570 or mMIGA2^pFFAT in the cell; Microcal ITC200, 25 °C, 25 mM Tris-HCl pH 7.5, 150 mM NaCl, 4 mM β-mercaptoethanol; 20 injections of 2 μl; 1:1 binding model; details: both partners purified
[11] = biological target: B4; assay: as above; details: both partners purified

CCCCCCCCCCCCCCCC(=O)OC[C@H](COP(=O)(O)OC[C@H](N)C(=O)O)OC(=O)CCCCCCCCCCCNc1ccc([N+](=O)[O-])c2nonc12 [NBD-PS, 1-palmitoyl-2-{12-[(7-nitro-2-1,3-benzoxadiazol-4-yl)amino]dodecanoyl}-sn-glycero-3-phosphoserine]
FRET lipid transfer between liposomes (zMiga2): zMiga2 transferred PS more rapidly than other phospholipids

CCCCCCCCCCCCCCCC(=O)OC[C@H](COP(=O)(O)O)OC(=O)CCCCCCCCCCCNc1ccc([N+](=O)[O-])c2nonc12 [NBD-PA, 1-palmitoyl-2-{12-[(7-nitro-2-1,3-benzoxadiazol-4-yl)amino]dodecanoyl}-sn-glycero-3-phosphate]
FRET lipid transfer between liposomes (zMiga2): zMiga2 transfers not only PS, but also PE, PC, and PA

B1
binding result [1]: binds

B2
stoichiometry N [2]: 0.633 ± 0.071
stoichiometry N [3]: 0.501 ± 0.013
stoichiometry N [4]: 0.658 ± 0.009
stoichiometry N [5]: 0.755 ± 0.07

B3
Kd [6]: 26.4 ± 6.8 µM
Kd [7]: 8.1 ± 1.5 µM
Kd [8]: 2500 ± 300 nM

B4
stoichiometry N [5]: 0.698 ± 0.071

B5
liposome particle size by DLS: donor liposomes pre-anchored with His-mVAPB mixed with acceptor liposomes pre-anchored with His-mMIGA2^275-570 (S292E/S295D), compared with wild-type His-mMIGA2^275-570 [9]: ~5 fold

B6
stoichiometry N [5]: 1.04 ± 0.027

B7
Kd [10]: 8.6 ± 1.4 µM
Kd [11]: 5 ± 0.4 µM

B8
binding result [1]: binds
